# What was measured:
# [1] = molecular target: chemokine receptor 1 (CCR1) (UniProt P56482); experiment: competition radioligand binding, membranes of CHO-K1 cells expressing CCR1, tracer [125I]-MIP-1 alpha; mean ± SEM
# [2] = molecular target: chemokine receptor 5 (CCR5) (human) (UniProt P51681); experiment: competition radioligand binding, membranes of CHO-K1 cells expressing CCR5, tracer [125I]-MIP-1 beta; mean ± SEM
# [3] = molecular target: chemokine receptor 1 (CCR1) (UniProt P56482); experiment: competition radioligand binding, membranes of CHO-K1 cells expressing CCR1, tracer [125I]-MIP-1 alpha
# [4] = molecular target: chemokine receptor 5 (CCR5) (human) (UniProt P51681)
# [5] = molecular target: chemokine receptor 5 (CCR5) (human) (UniProt P51681); remark: listed apart in the source
# [6] = molecular target: chemokine receptor 5 (CCR5) (human) (UniProt P51681); experiment: competition radioligand binding, membranes of CHO-K1 cells expressing CCR5, tracer [125I]-MIP-1 beta
# [7] = molecular target: chemokine receptor 1 (CCR1) (UniProt P56482)
# [8] = molecular target: chemokine receptor 1 (CCR1) (UniProt P56482); remark: listed apart in the source
# [9] = molecular target: chemokine receptor 1 (CCR1) (UniProt P56482); experiment: cell-based or functional assay
# Sequence of chemokine receptor 5 (CCR5) (human) (P51681 whole entry): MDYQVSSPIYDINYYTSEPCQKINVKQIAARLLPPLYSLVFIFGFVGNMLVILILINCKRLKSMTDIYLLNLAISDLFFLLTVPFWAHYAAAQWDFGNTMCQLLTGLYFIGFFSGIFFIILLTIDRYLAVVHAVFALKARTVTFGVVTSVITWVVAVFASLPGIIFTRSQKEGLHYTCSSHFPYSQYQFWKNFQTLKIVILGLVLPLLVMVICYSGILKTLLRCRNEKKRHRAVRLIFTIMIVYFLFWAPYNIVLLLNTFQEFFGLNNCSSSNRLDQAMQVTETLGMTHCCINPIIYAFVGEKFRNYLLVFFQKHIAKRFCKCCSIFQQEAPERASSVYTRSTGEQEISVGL
# Sequence of RANTES (P13501 24-91): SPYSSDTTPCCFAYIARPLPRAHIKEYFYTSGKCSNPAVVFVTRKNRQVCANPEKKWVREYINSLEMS
Substance,IC50 [1] [nM],IC50 [2] [nM],IC50 (read off the curve) [3] [nM],"EC50 (aequorin luminescence, CHO-K1 cells expressing CCR5) [4] [nM]",EC50 (read off the curve) [5] [nM],IC50 (read off the curve) [6] [nM],EC50 (read off the curve) [7] [nM],"EC50 (aequorin luminescence, CHO-K1 cells expressing CCR1) [8] [nM]",EC50 of receptor activation (aequorin assay) [9] [nM]
AOP-RANTES (ligand),2.67,0.0968,4,1.94,3,0.06,,,
NNY-RANTES (ligand),5.42,0.776,4,1.45,,0.1,,,
RANTES (from UniProt P13501 24-91) (ligand),,,0.3,,,,10,8.03,6.3

# From patent US20030158387A1
